Target: extracellular domain of HER2 (Homo sapiens, UniProt P04626)
Assay: SPR

Binder | binding result
parental Fab (meditope-enabled trastuzumab Fab, Ala175) (Fab, V domains shown) VH: not shown VL: DIQMTQSPILLSASVGDRVTITCRASQDVNTAVAWYQQRTNGSPRLLIYSASFLYSGVPSRFSGSRSGTDFTLTISSLQPEDEADYYCQQHYTTPPTFGAGTKVEIK | binds
175Cys-Fab (meditope-enabled trastuzumab Fab with Ala175 of the heavy chain changed to cysteine) (Fab, V domains shown) VH: not shown VL: DIQMTQSPILLSASVGDRVTITCRASQDVNTAVAWYQQRTNGSPRLLIYSASFLYSGVPSRFSGSRSGTDFTLTISSLQPEDEADYYCQQHYTTPPTFGAGTKVEIK | binds
